JP2004000228A

Target: anti-Fas monoclonal antibody HFE7A produced by mouse-mouse hybridoma HFE7A (FERM BP-5828)
Assay: peptide competition: 200 μg peptide preincubated with 0.25 μg HFE7A, then flow cytometry on WR19L12a cells

| inhibition of the binding of HFE7A to WR19L12a cells [%] | Binder |
| --- | --- |
| 60 | KCRCKPNFFC [P110] |
| 50 | EINCTRTQNT [P100] |
